Legend:
human GPR7 = target: T1, human GPR7 (Homo sapiens, UniProt P48145); assay: Aequorin-based functional assay, WTA11 cells expressing GPR7; format: cell-based; details: in words
T1 construct: expressed in transfected cells; host or cells: CHO-K1 clone WTA11 (mitochondrial apoaequorin + Galpha16)
T1 sequence (P48145 1-328): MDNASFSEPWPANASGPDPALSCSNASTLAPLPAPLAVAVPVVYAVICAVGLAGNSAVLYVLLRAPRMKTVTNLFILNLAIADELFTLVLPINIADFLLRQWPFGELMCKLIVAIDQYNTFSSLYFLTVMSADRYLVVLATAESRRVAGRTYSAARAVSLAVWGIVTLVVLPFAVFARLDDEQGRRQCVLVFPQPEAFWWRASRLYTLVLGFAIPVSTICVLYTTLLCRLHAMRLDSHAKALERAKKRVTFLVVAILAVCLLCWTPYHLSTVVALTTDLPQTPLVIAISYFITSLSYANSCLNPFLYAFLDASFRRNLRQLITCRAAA
Method: CHO—K1 cells (ATCC CRL-9618 (Bethesda, Md., USA)) were previously transfected with a plasmid encoding mitochondrial apoaequorin and Gα16. A clone obtained by limit dilution, called WTA11, was grown in Nutrient Mixture HAM's F12 medium supplemented with 10% fetal calf serum, 250 μg/ml zeocin, 100 units/ml penicillin and 100 μg/ml streptomycin. A bicistronic plasmid encoding the human GPR7 was transfected into WTA11 CHO—K1 cells, using Fugene 6 (Roche Diagnostics, Mannheim, Germany). Individual clones were selected two days after transfection with 400 μg/ml neomycin and GPR7-positive clones were confirmed by northern blotting, RT-PCR and sequencing.
Functional responses were analysed by recording the luminescence of aequorin following the addition of the ligand. In brief, cells were collected from plates with PBS containing 5 mM EDTA, pelleted, and resuspended at 10^7 cells/ml in DMEM-F12 medium and incubated with 5 μM coelenterainze H (Molecular Porbes) for 4 h at room temperature. Cells were then washed in DMEM-F12 medium and resuspended at a concentration of 2×10^6 cells/ml. Cells where then mixed with the ligand, and the light emission was recorded over 60 s using a Microlumat™ luminometer (Perkin Elmer). Results are expressed as relative light units (RLU) (FIG. 5).
(§1) In the experiments described in this section, the aequorin assay measured functional responses by recording the luminescence of aequorin in GPR7- and GPR8-expressing cells following addition of (potential) agonists, as previously described (Kotani, M. et al.). In brief, cells were collected from plates with PBS containing 5 mM EDTA, pelleted, resuspended at 5×10^6 cells/ml in DMEM-F12 medium containing 0.1% BSA, incubated with 5 μM coelenterazine H (Molecular Probes, Eugene, Oreg.) for 4 h at room temperature, and diluted in DMEM-F12 medium at a concentration of 5×10^5 cells/ml. Cells where then mixed with the ligands, and the light emission was recorded over 30 s using a Microlumat™ luminometer (Perkin Elmer, Norwalk, Conn.).

human GPR8 = target: T2, human GPR8 (Homo sapiens, UniProt P48146); assay: Aequorin-based functional assay, WTA11 cells expressing GPR8; format: cell-based; details: in words
T2 construct: expressed in transfected cells; host or cells: CHO-K1 clone WTA11 (apoaequorin + Galpha16)
Method: as §1

T2 sequence (P48146 whole entry): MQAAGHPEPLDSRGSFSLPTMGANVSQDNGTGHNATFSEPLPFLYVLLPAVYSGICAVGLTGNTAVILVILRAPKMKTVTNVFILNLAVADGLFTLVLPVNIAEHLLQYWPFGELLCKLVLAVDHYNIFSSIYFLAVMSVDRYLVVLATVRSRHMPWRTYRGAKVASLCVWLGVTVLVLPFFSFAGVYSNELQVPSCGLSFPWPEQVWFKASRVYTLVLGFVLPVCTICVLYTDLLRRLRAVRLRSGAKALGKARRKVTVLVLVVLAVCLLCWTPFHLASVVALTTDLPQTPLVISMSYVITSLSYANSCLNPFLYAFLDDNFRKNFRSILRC

Row | activity in aequorin-based functional assay on GPR7 (human GPR7) | activity in aequorin-based functional assay on GPR8 (human GPR8) | Substance
1 | inactive | inactive | SPYLW (UniProt Q8N729 58-62, looked up, fragment) [pro-L8 [58-62], human peptide derived from the L8 precursor]
2 | active | active | WYKPAAGHSSYSVGRAAGLL [pro-L7 [25-44], human peptide derived from the L7 precursor]
3 | inactive | inactive | SPYA (PYAR; UniProt Q8NG41 51-54, looked up, fragment) [pro-L7 [51-54], human peptide derived from the L7 precursor]

Source: US20030232756A1, “Ligands for G protein coupled receptor GPR7 and GPR8 and uses thereof” (Euroscreen, S.A., priority 2002, published 2003)
